# Laboratory results reported in patent US20160089413.
# System: all-D-retro-inverso JNK-inhibitor (poly-)peptide of SEQ ID NO: 11
substance,measurement,value
c-Jun NH2-terminal kinases (JNK),"c-Jun phosphorylation in RPE/choroid, densitometry of phospho c-Jun relative to tubulin, 24 h after IV injection (20 µg/kg)",0.28±0.01 vs 0.77±0.26 in IV of vehicle
same,"c-Jun phosphorylation in RPE/choroid, densitometry of phospho c-Jun relative to tubulin, 24 h after IVT injection (0.2 µg/injection)",0.35±0.08 vs 0.79±0.25 in IVT of vehicle
same,"c-Jun phosphorylation in RPE/choroid, densitometry of phospho c-Jun relative to tubulin, fold decrease against vehicle",An approximately 3-fold decrease in c-Jun phosphorylation
